Assay results published in US20240376151A1, “STAPLED PEPTIDES AND METHODS THEREOF” (FOG PHARMACEUTICALS, INC., priority 2022, published 2024).
Numbered stars: 1 amine (or outer) side, 2 acyl side, 3 side chain; on linkers, the order of the positions; unused ones are H or OH. Bridge positions count the residues as written; N and C are the ends. Ends that are not written are not given here. Phenylene(1,4-NHCOCH2)2 = O=C(C[*:1])Nc1ccc(NC(=O)C[*:2])cc1

Tests used:
FBXW7-SKP1 = target: T1, FBXW7-SKP1 (Homo sapiens, UniProt Q969H0); test: Naive Library Presenter Screening (phage, NGS), FBXW7-SKP1; type: binding; conditions: for interaction data at Target Concentration 10: FBXW7 target concentration 10 nM; for interaction data at Target Concentration 30: FBXW7 target concentration 30 nM; for interaction data at Target Concentration 100: FBXW7 target concentration 100 nM; for interaction data at Target Concentration 300: FBXW7 target concentration 300 nM; for interaction data at Target Concentration 1000: FBXW7 target concentration 1000 nM
T1 construct: FBXW7 (Uniprot ID: Q969H0, residues 263-706) with an N-terminal GST-TEV tag and C-terminal AVI tag; GST-TEV (N); made in house; host or cells: E. coli BL21 (DE3)
Experimental: To conduct phage library screening, previously described procedures were utilized in accordance with the present disclosure.
Next-generation sequencing was performed as described in accordance with the present disclosure.
Hit ID and Clustering is performed according to a described procedure in accordance with the present disclosure.

WWP1 = target: T2, WWP1 (Homo sapiens, UniProt Q9H0M0); test: Naive Library Presenter Screening (phage, NGS), WWP1 (construct not given); type: binding; conditions: for interaction data at Target Concentration 10: WWP1 target concentration 10 nM; for interaction data at Target Concentration 30: WWP1 target concentration 30 nM; for interaction data at Target Concentration 100: WWP1 target concentration 100 nM; for interaction data at Target Concentration 300: WWP1 target concentration 300 nM; for interaction data at Target Concentration 1000: WWP1 target concentration 1000 nM
T2 construct: GST-TEV (N, cleaved yes); made in house; host or cells: Escherichia coli BL21 (DE3)

T1 sequence (Q969H0 263-706): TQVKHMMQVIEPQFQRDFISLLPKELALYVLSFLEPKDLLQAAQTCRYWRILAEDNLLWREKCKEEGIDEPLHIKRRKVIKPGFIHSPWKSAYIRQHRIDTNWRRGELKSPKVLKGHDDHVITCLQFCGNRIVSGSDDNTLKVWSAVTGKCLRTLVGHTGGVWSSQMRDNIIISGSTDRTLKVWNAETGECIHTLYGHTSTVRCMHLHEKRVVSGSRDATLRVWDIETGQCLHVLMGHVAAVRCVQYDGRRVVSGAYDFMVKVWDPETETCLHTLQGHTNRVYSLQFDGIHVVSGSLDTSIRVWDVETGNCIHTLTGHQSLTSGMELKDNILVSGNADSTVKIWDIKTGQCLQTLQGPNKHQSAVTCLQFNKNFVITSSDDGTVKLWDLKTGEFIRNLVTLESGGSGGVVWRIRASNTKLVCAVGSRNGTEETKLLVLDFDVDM
T1 sequence (P63208 whole entry partner, the tested form may be a part): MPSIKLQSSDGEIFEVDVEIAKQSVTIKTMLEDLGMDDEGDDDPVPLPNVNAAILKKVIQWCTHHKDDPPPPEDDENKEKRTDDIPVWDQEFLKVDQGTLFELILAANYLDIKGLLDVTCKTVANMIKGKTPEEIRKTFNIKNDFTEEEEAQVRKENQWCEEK

Sequence	interaction data at Target Concentration 10 (FBXW7-SKP1)	interaction data at Target Concentration 30 (FBXW7-SKP1)	interaction data at Target Concentration 100 (FBXW7-SKP1)	interaction data at Target Concentration 300 (FBXW7-SKP1)	interaction data at Target Concentration 1000 (FBXW7-SKP1; first column)	interaction data at Target Concentration 1000 (FBXW7-SKP1; second column)	interaction data at Target Concentration 10 (WWP1)	interaction data at Target Concentration 30 (WWP1)	interaction data at Target Concentration 100 (WWP1)	interaction data at Target Concentration 300 (WWP1)	interaction data at Target Concentration 1000 (WWP1; second column)	interaction data at Target Concentration 1000 (WWP1; first column)
DPADLTCEDAAELCEFW	2	80	352	535	1005	510						
DPADMMCENAALLCEFW	1	3	68	20	282	228						
DPAHTACNQAARVCHTL (linker 7-14 via Phenylene(1,4-NHCOCH2)2)							1	4	104	200	253	
DPAIFDCEFAAHVCSVL (linker 7-14 via Phenylene(1,4-NHCOCH2)2)							0	26		436	618	275
DPAIIRCTSAAMMCHNT (linker 7-14 via Phenylene(1,4-NHCOCH2)2)							0	4	0	55	169	183
DPAIMSCMYAAEVCRVL (linker 7-14 via Phenylene(1,4-NHCOCH2)2)							0	1	147	109	253	183
DPAIQRCSTAAQVCRYL (linker 7-14 via Phenylene(1,4-NHCOCH2)2)							0	6	202	236	197	
DPAIRMCRDAAELCEFW	0	0	1	4	66	94						
DPAITTCLDAAELCDFW	1	26	61	34	215	132						
DPALASCQQAAWVCEVL (linker 7-14 via Phenylene(1,4-NHCOCH2)2)							0	43	173	291	309	

Continued, in another order:

interaction data at Target Concentration 10 (FBXW7-SKP1)	interaction data at Target Concentration 30 (FBXW7-SKP1)	interaction data at Target Concentration 100 (FBXW7-SKP1)	interaction data at Target Concentration 300 (FBXW7-SKP1)	interaction data at Target Concentration 1000 (FBXW7-SKP1; first column)	interaction data at Target Concentration 1000 (FBXW7-SKP1; second column)	Sequence	interaction data at Target Concentration 10 (WWP1)	interaction data at Target Concentration 30 (WWP1)	interaction data at Target Concentration 100 (WWP1)	interaction data at Target Concentration 300 (WWP1)	interaction data at Target Concentration 1000 (WWP1; second column)	interaction data at Target Concentration 1000 (WWP1; first column)
4	39	35	163	245	449	DPAAFFCDDAAERCEFW						
0	0	5	4	15	36	DPAAWICEEAAEICEFW						
1	23	187	302	505	554	DPADMYCRDAAELCEFW						
0	0	20	28	91	17	DPAFWYCDEAAEMCEFW						
